According to patent US20140120095A1 (Boehringer Ingelheim, published 2014):

Tests used:
VEGF = VEGF (UniProt P15692-4 27-191, limits assumed); test: cell-based or functional assay
[1] = molecular target: DII4-His (C-terminal His-tagged human DII4, amino acid 27-524) (human, UniProt Q9NR61 25-522); test: cell-based or functional assay
Chain of DII4-His (C-terminal His-tagged human DII4, amino acid 27-524) (Q9NR61 25-522): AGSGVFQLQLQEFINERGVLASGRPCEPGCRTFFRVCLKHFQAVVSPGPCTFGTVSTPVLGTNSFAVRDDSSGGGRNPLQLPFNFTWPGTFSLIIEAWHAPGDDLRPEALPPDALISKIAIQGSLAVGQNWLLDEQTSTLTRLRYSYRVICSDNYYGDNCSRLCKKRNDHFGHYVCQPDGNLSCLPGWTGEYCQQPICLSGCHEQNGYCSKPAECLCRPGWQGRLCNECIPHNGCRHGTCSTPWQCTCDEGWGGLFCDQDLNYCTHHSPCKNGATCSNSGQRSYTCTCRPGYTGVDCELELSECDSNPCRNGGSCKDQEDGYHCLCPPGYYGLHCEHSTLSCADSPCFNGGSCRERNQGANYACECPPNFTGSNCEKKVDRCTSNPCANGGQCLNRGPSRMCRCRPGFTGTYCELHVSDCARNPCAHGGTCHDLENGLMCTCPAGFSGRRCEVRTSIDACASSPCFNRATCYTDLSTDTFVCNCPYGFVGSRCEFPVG

Chain of VEGF (P15692 other isoform, or with tags, fused parts or gaps limits assumed): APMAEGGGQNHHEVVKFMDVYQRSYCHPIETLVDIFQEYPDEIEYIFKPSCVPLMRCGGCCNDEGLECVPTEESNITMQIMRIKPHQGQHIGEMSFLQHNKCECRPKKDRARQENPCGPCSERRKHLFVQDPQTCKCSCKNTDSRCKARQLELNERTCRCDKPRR

- % inhibition, VEGF HUVEC Erk phosphorylation assay, -HSA (VEGF): 106%
- IC50 (nM), VEGF HUVEC Erk phosphorylation assay, -HSA (VEGF): 0.4 nM
- IC50 (nM), DII4-mediated HUVEC proliferation assay, -HSA [1]: 0.28 nM
B1: VEGFDLLBII015 (bispecific antibody)
chain: EVQLVESGGGLVQTGDSLRLSCEVSGRTFSSYSMGWFRQAQGKEREFVVAISKGGYKYDSVSLEGRFTISKDNAKNTVYLQINSLKPEDTAVYYCASSRAYGSSRLRLADTYEYWGQGTQVTVSSGGGGSGGGGSGGGGCGGGGSGGGGSGGGGSGGGGSEVQLVESGGGLVQPGGSLRLSCVASGIRFMSMAWYRQAPGKHRELVARISSGGTTAYVDSVKGRFTISRDNSKNTVYLQMNSLKAEDTAVYYCNTFSSRPNPWGAGTQVTVSSGGGGSGGGGSGGGGSGGGGSGGGGSGGGGSGGGGSEVQLVESGGGLVQAGGSLRLSCAASGRTFSSYAMAWYRQAPGKEREYVAAIRWSGGTAYYADSVQGRFTISRDNAKNTVYLQMNSLKPEDTAVYYCANRAPDTRLAPYEYDHWGQGTQVTVSS
modifications: PEGylated 35gs, cys15 linker (PEG on the Cys at position 15 of the 35 Gly-Ser linker; size of the PEG not stated)
